B1: target 1 insG 3' of 6,insA 3' of 2 (mixed)
RNA 1: CACCCGUGCAAAAAUGCAGGGGUCUAAAACUGAGCGGAUAACCUCUCUAUGG
RNA 2: GGGAAUGGAUCCACAUCUACGAAUUCGUACCAUAGAGAGGUUAUCCGGCUCAACCGAGAUCGGAAGAGCACACGU
B2: target 1 insG 3' of 11,insC 3' of 10 (mixed)
RNA 1: CACCCGUGCAAAAAUGCAGGGGUCUAAAACUGAGCGGAUAACCUCUCUAUGG
RNA 2: GGGAAUGGAUCCACAUCUACGAAUUCGUACCAUAGAGAGGUGUCAUCCGCUCACCGAGAUCGGAAGAGCACACGU
B3: target 1 G12U,G15A (mixed)
RNA 1: CACCCGUGCAAAAAUGCAGGGGUCUAAAACUGAGCGGAUAACCUCUCUAUGG
RNA 2: GGGAAUGGAUCCACAUCUACGAAUUCGUACCAUAGAAAGUUUAUCCGCUCACCGAGAUCGGAAGAGCACACGU
B4: target 1 A1C,G12A (mixed)
RNA 1: CACCCGUGCAAAAAUGCAGGGGUCUAAAACUGAGCGGAUAACCUCUCUAUGG
RNA 2: GGGAAUGGAUCCACAUCUACGAAUUCGUACCAUAGAGAGAUUAUCCGCUCCCCGAGAUCGGAAGAGCACACGU
B5: target 1 insU 3' of 12,insC 3' of 5 (mixed)
RNA 1: CACCCGUGCAAAAAUGCAGGGGUCUAAAACUGAGCGGAUAACCUCUCUAUGG
RNA 2: GGGAAUGGAUCCACAUCUACGAAUUCGUACCAUAGAGAGGUUUAUCCGCCUCACCGAGAUCGGAAGAGCACACGU
B6: target 1 insA 3' of 15,insU 3' of 4 (mixed)
RNA 1: CACCCGUGCAAAAAUGCAGGGGUCUAAAACUGAGCGGAUAACCUCUCUAUGG
RNA 2: GGGAAUGGAUCCACAUCUACGAAUUCGUACCAUAGAGAAGGUUAUCCGCUUCACCGAGAUCGGAAGAGCACACGU
B7: target 1 complement block 3-14 (mixed)
RNA 1: CACCCGUGCAAAAAUGCAGGGGUCUAAAACUGAGCGGAUAACCUCUCUAUGG
RNA 2: GGGAAUGGAUCCACAUCUACGAAUUCGUACCAUAGAGUCCAAUAGGCGACACCGAGAUCGGAAGAGCACACGU
B8: target 1 insA 3' of 22,insU 3' of 2 (mixed)
RNA 1: CACCCGUGCAAAAAUGCAGGGGUCUAAAACUGAGCGGAUAACCUCUCUAUGG
RNA 2: GGGAAUGGAUCCACAUCUACGAAUUCGUACACAUAGAGAGGUUAUCCGCUCUACCGAGAUCGGAAGAGCACACGU
B9: target 1 C4G,A18U (mixed)
RNA 1: CACCCGUGCAAAAAUGCAGGGGUCUAAAACUGAGCGGAUAACCUCUCUAUGG
RNA 2: GGGAAUGGAUCCACAUCUACGAAUUCGUACCAUUGAGAGGUUAUCCGGUCACCGAGAUCGGAAGAGCACACGU
B10: target 1 del8,del20 (mixed)
RNA 1: CACCCGUGCAAAAAUGCAGGGGUCUAAAACUGAGCGGAUAACCUCUCUAUGG
RNA 2: GGGAAUGGAUCCACAUCUACGAAUUCGUACCUAGAGAGGUUACCGCUCACCGAGAUCGGAAGAGCACACGU
B11: target 1 insC 3' of 8,insU 3' of 2 (mixed)
RNA 1: CACCCGUGCAAAAAUGCAGGGGUCUAAAACUGAGCGGAUAACCUCUCUAUGG
RNA 2: GGGAAUGGAUCCACAUCUACGAAUUCGUACCAUAGAGAGGUUAUCCCGCUCUACCGAGAUCGGAAGAGCACACGU
B12: target 1 insA 3' of 21,insC 3' of 5 (mixed)
RNA 1: CACCCGUGCAAAAAUGCAGGGGUCUAAAACUGAGCGGAUAACCUCUCUAUGG
RNA 2: GGGAAUGGAUCCACAUCUACGAAUUCGUACCAAUAGAGAGGUUAUCCGCCUCACCGAGAUCGGAAGAGCACACGU
B13: target 1 insA 3' of 7,insA 3' of 2 (mixed)
RNA 1: CACCCGUGCAAAAAUGCAGGGGUCUAAAACUGAGCGGAUAACCUCUCUAUGG
RNA 2: GGGAAUGGAUCCACAUCUACGAAUUCGUACCAUAGAGAGGUUAUCACGCUCAACCGAGAUCGGAAGAGCACACGU

Target: T1, EsCas13d, nuclease-dead (Eubacterium siraeum, UniProt B0MS50, R295A;H300A;R849A;H854A)
T1 sequence: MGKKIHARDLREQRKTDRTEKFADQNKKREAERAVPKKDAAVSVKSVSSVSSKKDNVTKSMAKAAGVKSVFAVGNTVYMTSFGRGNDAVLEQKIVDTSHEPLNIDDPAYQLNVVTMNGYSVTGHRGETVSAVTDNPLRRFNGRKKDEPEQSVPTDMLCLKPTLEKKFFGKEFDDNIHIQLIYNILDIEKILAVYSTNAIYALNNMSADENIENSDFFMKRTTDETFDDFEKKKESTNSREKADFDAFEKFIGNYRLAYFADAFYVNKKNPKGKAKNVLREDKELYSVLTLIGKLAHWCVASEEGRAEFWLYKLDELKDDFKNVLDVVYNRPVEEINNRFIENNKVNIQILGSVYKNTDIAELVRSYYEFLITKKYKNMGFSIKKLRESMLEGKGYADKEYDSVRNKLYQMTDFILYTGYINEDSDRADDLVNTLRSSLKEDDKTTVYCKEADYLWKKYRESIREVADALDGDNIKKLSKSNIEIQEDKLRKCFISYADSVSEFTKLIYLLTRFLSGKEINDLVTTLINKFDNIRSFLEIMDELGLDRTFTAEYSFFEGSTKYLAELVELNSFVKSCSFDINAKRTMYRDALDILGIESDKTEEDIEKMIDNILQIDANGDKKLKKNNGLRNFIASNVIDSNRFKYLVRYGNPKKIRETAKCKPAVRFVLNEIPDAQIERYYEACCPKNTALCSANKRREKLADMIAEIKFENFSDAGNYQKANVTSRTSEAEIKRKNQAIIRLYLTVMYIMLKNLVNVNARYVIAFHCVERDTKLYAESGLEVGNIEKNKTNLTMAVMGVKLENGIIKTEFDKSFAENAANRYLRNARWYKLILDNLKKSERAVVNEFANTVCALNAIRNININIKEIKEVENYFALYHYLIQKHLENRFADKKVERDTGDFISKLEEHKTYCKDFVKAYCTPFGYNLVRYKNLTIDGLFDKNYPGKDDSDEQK
Experiment: crRNA (strand 1, pre-loaded); Mg2+; 40 mM Tris-HCl pH 7.5, 150 mM NaCl, 6 mM MgCl2, 1 mM DTT, 0.1% Tween-20, 0.2 mg/ml BSA; 25 C; 10 min per concentration, then washed
Conditions: tags: His6-TwinStrep-SUMO cleaved; N-terminal SNAP kept (SNAP-Surface 488); label: 3' end held by stalled T7 RNA polymerase

Point of comparison: B9, Kd 22.7 ± 2.4 nM. Against it:
- B1 — 1.8-fold lower, 12.6 ± 0.7 nM
- B2 — within error, 21.3 ± 0.9 nM
- B3 — 2-fold lower, 11.3 ± 1.3 nM
- B4 — 3.4-fold lower, 6.6 ± 0.5 nM
- B5 — 2.3-fold lower, 9.8 ± 1.2 nM
- B6 — 2.4-fold lower, 9.5 ± 1.2 nM
- B7 — 2.6-fold higher, ~60 nM
- B8 — 1.6-fold lower, 14.6 ± 1 nM
- B10 — 3.3-fold higher, 74 ± 9 nM
- B11 — within error, 21.3 ± 2.8 nM
- B12 — 2-fold higher, 45 ± 7 nM
- B13 — 3.2-fold lower, 7.2 ± 0.8 nM

— paper PMC10786891, “Massively parallel profiling of RNA-targeting CRISPR-Cas13d”
